We go through 2 proteins from FireProtDB.

For the data set the following is noted: whole UniProt chain shown.
The mark [1] stands for this setting: Escherichia coli (strain K12), pH 7.5, 20 °C, GdnHCl, CD, HEPES 5 mM, NiCl2 5 mM, reversible: Yes.
[2] abbreviates: Geobacillus stearothermophilus, pH 5.4, 25 °C, Thermal, CD, acetate 20 mM, NaCl 100 mM, reversible: yes.
Where [3] appears, read: Geobacillus stearothermophilus, pH 5.4, 25 °C, Urea, CD, acetate 20 mM, NaCl 100 mM, reversible: yes.
[4] abbreviates: Geobacillus stearothermophilus, pH 5.4, 25.15 °C, Urea, CD, sodium acetate 10 mM, Nacl 100 mM.
The mark [5] stands for this setting: Geobacillus stearothermophilus, pH 5.4, Thermal, CD, acetate 20 mM, NaCl 100 mM, reversible: yes.
The mark [6] stands for this setting: Geobacillus stearothermophilus, pH 5.45, 10 °C, GdnHCl, CD, sodium acetate,sodium sulfate.
The mark [7] stands for this setting: Geobacillus stearothermophilus, pH 5.45, 25 °C, Urea, CD, Sodium phosphate 20 mM, NaCl 100 mM, reversible: Yes.
[8] abbreviates: Geobacillus stearothermophilus, pH 5.45, 25 °C, Urea, CD, sodium phosphate 10 mM, NaCl 100 mM, reversible: Yes.
Where [9] appears, read: Geobacillus stearothermophilus, pH 5.45, 25 °C, Urea, CD, sodium phosphate 20 mM, sodium chloride 100 mM, reversible: yes.
Where [10] appears, read: Geobacillus stearothermophilus, pH 5.45, 25 °C, Urea, Fluorescence, Sodium phosphate 20 mM, NaCl 100 mM, reversible: Yes.
[11] abbreviates: Geobacillus stearothermophilus, pH 5.5, 25 °C, Urea, CD, NaAc 20 mM, NaCl 100 mM.
Where [12] appears, read: Geobacillus stearothermophilus, pH 5.5, 25 °C, Urea, CD, Sodium phosphate 20 mM, NaCl 100 mM.
[13] abbreviates: Geobacillus stearothermophilus, pH 8, 25 °C, GdnHCl, CD, Tris-HCl 20 mM, sodium chloride 100 mM, reversible: yes.
Setting [14] is: Geobacillus stearothermophilus, pH 8, 25 °C, Urea, CD, Sodium phosphate 20 mM, NaCl 100 mM, reversible: Yes.
The mark [15] stands for this setting: Geobacillus stearothermophilus, pH 8, 25 °C, Urea, CD, sodium phosphate 20 mM, sodium chloride 100 mM, reversible: yes.
The mark [16] stands for this setting: Geobacillus stearothermophilus, pH 8, 25 °C, Urea, Fluorescence, Sodium phosphate 20 mM, NaCl 100 mM, reversible: Yes.

Values joined by “and” are separate entries in the source; they are usually repeats but may differ in a detail not shown here. Equal values may be shown once.

B1: Peptide deformylase wild type, P0A6K3 (protein)
chain: MSVLQVLHIPDERLRKVAKPVEEVNAEIQRIVDDMFETMYAEEGIGLAATQVDIHQRIIVIDVSENRDERLVLINPELLEKSGETGIEEGCLSIPEQRALVPRAEKVKIRALDRDGKPFELEADGLLAICIQHEMDHLVGKLFMDYLSPLKQQRIRQKVEKLDRLKARA
In the case of B1, under setting [1], the denaturant m value was determined as 1.8 kcal/mol/M and the unfolding free energy is 4.4 kcal/mol.

B2: Large ribosomal subunit protein bL9 wild type, P02417 (protein)
chain: MKVIFLKDVKGKGKKGEIKNVADGYANNFLFKQGLAIEATPANLKALEAQKQKEQRQAAEELANAKKLKEQLEKLTVTIPAKAGEGGRLFGSITSKQIAESLQAQHGLKLDKRKIELADAIRALGYTNVPVKLHPEVTATLKVHVTEQK
Turning to B2, the unfolding free energy was 2.1 kcal/mol (Geobacillus stearothermophilus, pH 5.4, 25 °C, GdnHCl, CD, phosphate 10 mM, NaCl 100 mM, reversible: yes); 2.18 kcal/mol under setting [2]; 1.9 kcal/mol under setting [3]; 4.3 kcal/mol under setting [4]; 6.02 kcal/mol under setting [6]; 3.82 kcal/mol (Geobacillus stearothermophilus, pH 5.45, 25 °C, Thermal, CD, Sodium phosphate 20 mM, NaCl 100 mM, reversible: Yes (>90%)). Besides, the unfolding free energy was 3.32 kcal/mol under setting [7]; 4.17 kcal/mol under setting [8]; 3.91 kcal/mol under setting [9]; 3.84 kcal/mol under setting [10]; 4.3 kcal/mol and 5.85 kcal/mol under setting [11]; 4.3 kcal/mol under setting [12]. Further, the unfolding free energy came to 5.9 kcal/mol under setting [13]; 6.45 kcal/mol under setting [14]; 6.38 kcal/mol under setting [15]; 6.49 kcal/mol under setting [16]; 5.77 kcal/mol (Geobacillus stearothermophilus, pH 8, Thermal, CD, Sodium phosphate 20 mM, NaCl 100 mM, reversible: Yes (>90%)). For the same protein, the “heat capacity change of unfolding” value runs as follows: under setting [2], 0.38 kcal/mol/K; under setting [5], 0.38 kcal/mol/K. Further, the denaturant m value is 0.48 kcal/mol/M under setting [3]; 0.66 kcal/mol/M under setting [4]; 1.52 kcal/mol/M under setting [6]; 1.32 kcal/mol/M under setting [7]; 0.66 kcal/mol/M under setting [8]; 1.21 kcal/mol/M under setting [9]. Besides, the denaturant m value is 1.24 kcal/mol/M under setting [10]; 0.66 kcal/mol/M under setting [11]; 0.66 kcal/mol/M under setting [12]; 2.24 kcal/mol/M under setting [13]; 1.02 kcal/mol/M under setting [14]; 1.02 kcal/mol/M under setting [15]. The denaturant m value under setting [16] came out at 1.05 kcal/mol/M. Further, the “denaturant midpoint (higher = more stable)” value worked out at 3.96 M under setting [3] and 6.5 M under setting [4]. For the same protein, the Tm came out at 65.3 °C under setting [5] and 77 °C (Geobacillus stearothermophilus, pH 7.4, Thermal, CD, Tris 10 mM, NaCl 100 mM, reversible: yes(95-100%)). Under setting [5], the “unfolding enthalpy (van 't Hoff)” value is 26.3 kcal/mol.
